Test results from publication PMC12139977.

Assays:
[1] = biological target: Syntaxin-1A (rat (endogenous in INS1 (832/13))) (UniProt P32851); assay: proximity ligation
[2] = biological target: Syntaxin-1A (rat (endogenous in INS1 (832/13))) (UniProt P32851); assay: co-IP

UniProt P32851, sequence (P32851 whole entry): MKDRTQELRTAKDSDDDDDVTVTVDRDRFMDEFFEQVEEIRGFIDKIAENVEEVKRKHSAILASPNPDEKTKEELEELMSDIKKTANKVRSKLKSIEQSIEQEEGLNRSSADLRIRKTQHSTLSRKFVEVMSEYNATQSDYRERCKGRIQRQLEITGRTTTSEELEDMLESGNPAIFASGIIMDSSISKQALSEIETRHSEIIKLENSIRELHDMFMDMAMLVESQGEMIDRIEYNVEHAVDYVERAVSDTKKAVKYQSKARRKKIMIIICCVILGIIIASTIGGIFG

Tomosyn-2 (natural protein) was tested, and the fold increase of PLA signal over the control [1] was 8 fold.
Work on “stabilized V5-tagged Tomosyn-2 (natural protein)” yielded a fold increase of Tomosyn-2 bound to Stx1A against control cells [2] of 3 fold.
